In this data set the test system is RSC complex (17 subunits, 1.197 MDa);histone octamer (recombinant) (yeast;Xenopus laevis). Description: AFM. Conditions: RSC:mononucleosome 1:3, AFM: 1 nM RSC with 21 nM 1 kbp DNA without ATP, or RSC:mononucleosome 1:3 for 30 min with or without 4 mM ATP or ATPgS, buffer, salt, pH and temperature not in ….

Consider “601 mononucleosome with 236 and 252 bp arms (240/240, 635 bp)”, for which the binding signal (% of substrate RSC-bound) runs as follows: (4 mM ATP, 50% of RSC complexes nucleosome-bound) 32; (4 mM ATPgS, 76% of RSC complexes on bare DNA arms) 52; (no ATP, 72% of RSC complexes on bare DNA arms) 25.
